Article PMC10397247

Tests used:
[1] = target: T1, 4H967-bH; test: two-hybrid library CCNG1;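 also: natural log of median RNA to DNA barcode read ratio; higher means stronger binding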
T1 chain: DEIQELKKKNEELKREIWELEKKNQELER

[2] = target: T2, 4H918-bH; test: two-hybrid library CCNG1;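 also: natural log of median RNA to DNA barcode read ratio; higher means stronger binding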
T2 chain: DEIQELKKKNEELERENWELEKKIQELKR

[3] = target: T3, 4H883-bH; test: two-hybrid library CCNG1;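 also: natural log of median RNA to DNA barcode read ratio; higher means stronger binding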
T3 chain: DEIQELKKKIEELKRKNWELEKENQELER

[4] = target: T4, 4H908-bH; test: two-hybrid library CCNG1;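 also: natural log of median RNA to DNA barcode read ratio; higher means stronger binding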
T4 chain: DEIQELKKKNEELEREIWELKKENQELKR

[5] = target: T5, 4H953-bH; test: two-hybrid library CCNG1;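 also: natural log of median RNA to DNA barcode read ratio; higher means stronger binding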
T5 chain: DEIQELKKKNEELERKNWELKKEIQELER

[6] = target: T6, APC9291-AA; test: two-hybrid library CCmax; settings: mean of both orientations;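 also: natural log of median RNA to DNA barcode read ratio; higher means stronger binding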
T6 chain: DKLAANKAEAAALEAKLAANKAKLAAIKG

[7] = target: T7, APC9182-AA; test: two-hybrid library CCmax; settings: mean of both orientations
T7 chain: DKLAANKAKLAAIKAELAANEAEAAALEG

[8] = target: T8, APC9806-AA; test: two-hybrid library CCmax; settings: mean of both orientations
T8 chain: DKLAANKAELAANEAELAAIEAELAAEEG

[9] = target: T9, APC9141-AA; test: two-hybrid library CCmax
T9 chain: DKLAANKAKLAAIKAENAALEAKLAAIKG

[10] = target: T10, 4H797-bH; test: two-hybrid library CCNG1
T10 chain: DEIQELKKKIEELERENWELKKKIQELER

[11] = target: T11, 4H72-bH; test: two-hybrid library CCNG1
T11 chain: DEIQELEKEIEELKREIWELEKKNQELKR

[12] = target: T12, 4H754-bH; test: two-hybrid library CCNG1
T12 chain: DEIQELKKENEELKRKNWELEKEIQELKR

[13] = target: T13, 4H968-bA; test: two-hybrid library CCNG1
T13 chain: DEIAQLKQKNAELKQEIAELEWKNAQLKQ

[14] = target: T14, 4H497-AA; test: two-hybrid library CCmax; settings: mean of both orientations
T14 chain: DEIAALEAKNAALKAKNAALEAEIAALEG

[15] = target: T15, 4H3920-AA; test: two-hybrid library CCmax; settings: mean of both orientations
T15 chain: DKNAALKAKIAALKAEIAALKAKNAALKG

[16] = target: T16, 4H656-AA; test: two-hybrid library CCmax; settings: mean of both orientations
T16 chain: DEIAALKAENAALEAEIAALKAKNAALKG

[17] = target: T17, 4H675-AA; test: two-hybrid library CCmax; settings: mean of both orientations
T17 chain: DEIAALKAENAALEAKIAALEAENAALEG

[18] = target: T18, 4H971-AA; test: two-hybrid library CCmax; settings: mean of both orientations
T18 chain: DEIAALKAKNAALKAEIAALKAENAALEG

[19] = target: T19, 4H478-AA; test: two-hybrid library CCmax; settings: mean of both orientations
T19 chain: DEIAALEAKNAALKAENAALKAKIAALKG

[20] = target: T20, 4H428-AA; test: two-hybrid library CCmax; settings: mean of both orientations
T20 chain: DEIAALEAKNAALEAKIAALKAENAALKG

[21] = target: T21, 4H391-AA; test: two-hybrid library CCmax
T21 chain: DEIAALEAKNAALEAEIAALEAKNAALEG

[22] = target: T22, 4H3939-AA; test: two-hybrid library CCmax; settings: mean of both orientations
T22 chain: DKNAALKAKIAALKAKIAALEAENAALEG

[23] = target: T23, 4H953-bN; test: two-hybrid library CCNG1
T23 chain: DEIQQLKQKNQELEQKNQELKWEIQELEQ

[24] = target: T24, 4H968-bN; test: two-hybrid library CCNG1
T24 chain: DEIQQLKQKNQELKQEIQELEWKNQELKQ

[25] = target: T25, 4H967-bN; test: two-hybrid library CCNG1
T25 chain: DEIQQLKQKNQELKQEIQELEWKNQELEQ

B1: 4H883-bH (peptide)
chain: DEIQELKKKIEELKRKNWELEKENQELER
- interaction score [1]: -0.709
- interaction score [2]: -0.51
- interaction score [3]: 0.33
- interaction score [4]: -0.306
- interaction score [5]: -0.831

B2: APC9141-AA (peptide)
chain: DKLAANKAKLAAIKAENAALEAKLAAIKG
- interaction score [6]: -1.86
- interaction score [7]: -1.82
- interaction score [8]: -1.67
- interaction score [9]: -2.08

B3: 4H72-bH (peptide)
chain: DEIQELEKEIEELKREIWELEKKNQELKR
- interaction score [1]: 0.0764
- interaction score [10]: 0
- interaction score [2]: 0.163
- interaction score [3]: 1.69
- interaction score [4]: 0.614
- interaction score [5]: 0.653
- interaction score [11]: 0.746
- interaction score [12]: -0.378

B4: 4H968-bA (peptide)
chain: DEIAQLKQKNAELKQEIAELEWKNAQLKQ
- interaction score [13]: -1.46

B5: 4H391-AA (peptide)
chain: DEIAALEAKNAALEAEIAALEAKNAALEG
- interaction score [14]: -2
- interaction score [15]: -1.23
- interaction score [16]: -0.583
- interaction score [17]: -1.11
- interaction score [18]: -1.02
- interaction score [19]: -1.59
- interaction score [20]: -0.212
- interaction score [21]: -1.79
- interaction score [22]: -1.7

B6: 4H953-bN (peptide)
chain: DEIQQLKQKNQELEQKNQELKWEIQELEQ
- interaction score [23]: -1.67
- interaction score [24]: -1.24
- interaction score [25]: -1.76
